Substrate in data set [1]: Nc1nc(F)nc2c1ncn2[C@@H]1O[C@H](CO)[C@@H](O)[C@@H]1O
Briefly: Kinetic parameter was determined against adenosine deaminase expressed as Km.

Substrate in data set [2]: Nc1nc(F)nc2c1ncn2[C@@H]1O[C@H](CO)[C@@H](O)[C@@H]1O
Briefly: (§1) Kinetic parameter was determined against adenosine deaminase expressed as Vmax.

Substrate in data set [3]: Nc1nc(N)c2ncn([C@@H]3O[C@H](CO)[C@@H](O)[C@H]3O)c2n1
The data set is described as §1.

Substrate in data set [4]: Nc1ncnc2c1ncn2[C@@H]1O[C@H](CO)[C@@H](O)[C@H]1O
The description is as §1.

The values that follow come from ChEMBL document CHEMBL1123068, “2-Fluoroformycin and 2-aminoformycin. Synthesis and biological activity” (J Med Chem, 1985).

B1: Adenosine deaminase (Bos taurus), P56658 (protein)
chain: MAQTPAFNKPKVELHVHLDGAIKPETILYYGRKRGIALPADTPEELQNIIGMDKPLSLPEFLAKFDYYMPAIAGCREAVKRIAYEFVEMKAKDGVVYVEVRYSPHLLANSKVEPIPWNQAEGDLTPDEVVSLVNQGLQEGERDFGVKVRSILCCMRHQPSWSSEVVELCKKYREQTVVAIDLAGDETIEGSSLFPGHVKAYAEAVKSGVHRTVHAGEVGSANVVKEAVDTLKTERLGHGYHTLEDATLYNRLRQENMHFEVCPWSSYLTGAWKPDTEHPVVRFKNDQVNYSLNTDDPLIFKSTLDTDYQMTKNEMGFTEEEFKRLNINAAKSSFLPEDEKKELLDLLYKAYGMPSPASAEQCL
On to B1, for which the Km in data set [1] came to 81 µM. In addition, in data set [2], the Vmax stood at 0.78 M/min/mg. The figures for the Vmax (µmol min-1 mg-1) in data set [3] and in data set [4] were 119 and 435, respectively.
